Assay results as given in patent US20140227291A1 (AbbVie / Abbott, published 2014).

What was measured:
[1] = biological target: T1, Abeta(20-42) globulomer (human); experiment: dot blot, antigen dilution series on nitrocellulose, antibody 0.2 µg/ml, densitometry; reference antigen
T1 construct: Oligomer; also called amyloid-beta (20-42) globulomer
T1 peptide: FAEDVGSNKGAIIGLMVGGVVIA
Experimental: (§1) The dot blot was developed with 10 ml BM Blue POD Substrate for 10 min. The development was stopped by intense washing of the dot blot with H₂O. Quantitative evaluation was done based on a densitometric analysis (GS800 densitometer (BioRad) and software package Quantity one, Version 4.5.0 (Bio-Rad)) of the dot intensity. […] This threshold value was determined for every dot blot independently. The calculated value indicates the relation between recognition of Aβ(20-42) globulomer and the respective Aβ form for the given antibody.
(§2) The individual Aβ forms were applied in serial dilutions and incubated with the respective antibodies for immune reaction (1=Aβ(1-42) monomer, 0.1% NH₄OH; 2=Aβ(1-40) monomer, 0.1% NH₄OH; 3=Aβ(1-42) monomer, 0.1% NaOH; 4=Aβ(1-40) monomer, 0.1% NaOH; 5=Aβ(1-42) globulomer; 6=Aβ(12-42) globulomer; 7=Aβ(20-42) globulomer; 8=Aβ(1-42) fibril preparation; 9=sAPPα (Sigma); (first dot: 1 pmol)).

[2] = biological target: T2, sAPPalpha (Sigma cat. no. S9564) (UniProt P05067-4 18-612, limits assumed); experiment: dot blot, antigen dilution series on nitrocellulose (first dot 1 pmol), antibody 0.2 µg/ml, densitometry
T2 construct: Bought protein; also called sAPPα; soluble Abeta precursor
T2 sequence (P05067 other isoform, or with tags, fused parts or gaps limits assumed): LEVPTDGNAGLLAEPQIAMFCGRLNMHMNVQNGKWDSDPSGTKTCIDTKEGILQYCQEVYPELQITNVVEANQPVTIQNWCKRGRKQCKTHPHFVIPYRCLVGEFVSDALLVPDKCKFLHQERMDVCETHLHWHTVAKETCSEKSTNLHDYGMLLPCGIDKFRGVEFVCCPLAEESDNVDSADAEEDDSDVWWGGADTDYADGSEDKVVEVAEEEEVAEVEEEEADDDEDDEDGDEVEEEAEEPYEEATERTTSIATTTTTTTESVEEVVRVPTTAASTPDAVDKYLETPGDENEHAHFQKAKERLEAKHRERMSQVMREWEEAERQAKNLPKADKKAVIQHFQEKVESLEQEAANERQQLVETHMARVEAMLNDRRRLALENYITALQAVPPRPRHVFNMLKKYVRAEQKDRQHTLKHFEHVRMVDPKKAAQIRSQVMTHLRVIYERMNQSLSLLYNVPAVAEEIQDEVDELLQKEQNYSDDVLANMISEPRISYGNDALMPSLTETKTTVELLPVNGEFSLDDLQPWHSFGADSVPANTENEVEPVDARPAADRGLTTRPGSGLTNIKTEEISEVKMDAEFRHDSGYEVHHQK

[3] = biological target: T3, Abeta(12-42) globulomer (human); experiment: dot blot, antigen dilution series on nitrocellulose, antibody 0.2 µg/ml, densitometry
T3 construct: Oligomer
T3 peptide: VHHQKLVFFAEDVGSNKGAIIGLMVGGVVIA
Experimental: as §1, §2

[4] = biological target: T4, Abeta(1-42) monomer in 0.1% NaOH (human); experiment: dot blot: antigen dilution series dotted on nitrocellulose, anti-mouse-IgG-POD detection
T4 construct: also called Abeta(1-42) monomer, 0.1% NaOH
Experimental: (§3) In order to characterize the selectivity of monoclonal anti Aβ(20-42) globulomer antibodies, they were tested for binding to different Aβ-forms. To this end, serial dilutions of the individual Aβ(1-42) forms ranging from 100 pmol/μl to 0.00001 pmol/μl in PBS supplemented with 0.2 mg/ml BSA were prepared. 1 μl of each dilution was blotted onto a nitrocellulose membrane. Detection was performed by incubating with the corresponding antibody (0.2 μg/ml) followed by immunostaining using Peroxidase conjugated anti-mouse-IgG and the staining reagent BM Blue POD Substrate (Roche).
as §2

[5] = biological target: T5, Abeta(1-42) monomer in 0.1% NH4OH (human); experiment: as above
T5 construct: also called Abeta(1-42) monomer, 0.1% NH4OH
Experimental: as §3, §2

[6] = biological target: T6, Abeta(1-40) monomer in 0.1% NH4OH (human); experiment: as above
T6 construct: also called Abeta(1-40) monomer, 0.1% NH4OH
T6 sequence (peptide, as listed by the source): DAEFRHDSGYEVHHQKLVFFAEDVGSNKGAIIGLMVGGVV
Experimental: as §3, §2

[7] = biological target: T3, Abeta(12-42) globulomer; experiment: as above
Experimental: as §3, §2

[8] = biological target: T7, Abeta(1-40) monomer in 0.1% NaOH (human); experiment: as above
T7 construct: also called Abeta(1-40) monomer, 0.1% NaOH
T7 sequence (peptide, as listed by the source): as above
Experimental: as §3, §2

[9] = biological target: T2, sAPPalpha (Sigma cat. no. S9564); experiment: as above
Experimental: as §3, §2

[10] = biological target: T8, Abeta(1-42) fibril preparation (human, UniProt P05067 672-713); experiment: as above
T8 construct: also called Abeta(1-42) fibrils
Experimental: as §3, §2

[11] = biological target: T9, Abeta(1-42) globulomer (human, UniProt P05067 672-713); experiment: as above
T9 construct: also called 38/48-kDa Abeta(1-42) globulomer
Experimental: as §3, §2

[12] = biological target: T4, Abeta(1-42) monomer in 0.1% NaOH; experiment: dot blot, antigen dilution series on nitrocellulose, antibody 0.2 µg/ml, densitometry
Experimental: as §1, §2

[13] = biological target: T5, Abeta(1-42) monomer in 0.1% NH4OH; experiment: as above
Experimental: as §1, §2

[14] = biological target: T6, Abeta(1-40) monomer in 0.1% NH4OH; experiment: as above
Experimental: as §1, §2

[15] = biological target: T7, Abeta(1-40) monomer in 0.1% NaOH; experiment: as above
Experimental: as §1, §2

[16] = biological target: T8, Abeta(1-42) fibril preparation; experiment: as above
Experimental: as §1, §2

[17] = biological target: T9, Abeta(1-42) globulomer; experiment: as above
Experimental: as §1, §2

Row | Binder | dot blot ratio (recognition of Abeta(20-42) globulomer relative to this Abeta form) [1] | dot blot ratio (recognition of Abeta(20-42) globulomer relative to this Abeta form) [2] | dot blot ratio (recognition of Abeta(20-42) globulomer relative to this Abeta form) [3] | binding result [4] | binding result [5] | binding result [6] | binding result [7] | binding result [8] | binding result [9] | binding result [10] | binding result [11] | dot blot ratio (recognition of Abeta(20-42) globulomer relative to this Abeta form) [12] | dot blot ratio (recognition of Abeta(20-42) globulomer relative to this Abeta form) [13] | dot blot ratio (recognition of Abeta(20-42) globulomer relative to this Abeta form) [14] | dot blot ratio (recognition of Abeta(20-42) globulomer relative to this Abeta form) [15] | dot blot ratio (recognition of Abeta(20-42) globulomer relative to this Abeta form) [16] | dot blot ratio (recognition of Abeta(20-42) globulomer relative to this Abeta form) [17]
1 | Anti-Abeta monoclonal antibody clone 6E10 (Covance cat. no. SIG-39320) (antibody, V domains shown) VH: EVQLQQSGAELVKPGASVKLCTASGFNIKDTYIHWVKQRPEQGLEWIGRFDPVNVNTRYDSRFRGKATITSDASSNTAYLHLNSLTSEDTAVYYCSRSYYNGRRRFTYWGQGTLVTVSA VL: DIVMTQSPSSLTVTAGEKVALTCKASQSLLSSGNQKNYLTWYQQKPGQPPKLLIYWASIRESGVPDRFTGSGSGTFFTLTISSVQAEDLAVYYCQNDYNYPFTFGSGTKLEIK | 1 | 0.2 | 6 |  |  |  |  |  |  |  |  |  |  |  |  |  | 
2 | murine monoclonal antibody m10B3 (antibody, V domains shown, Murine monoclonal antibody from hybridoma after immunization of mice with Abeta(20-42) globulomer; also called mAb m10B3; mAb 10B3) VH: EVKLVESGGGLVQPGGSRKLSCAASGFTFSDYEMVWVRQAPGEGLEWVAYISSGSRTIHYADTVKGRFTISRDNPKNTLFLQMSSLRSEDTAMYYCARTLLRLHFDYWGQGTILTVSS VL: not shown |  |  |  | no binding | no binding | no binding | no binding | no binding | no binding | no binding | no binding |  |  |  |  |  | 
3 | murine monoclonal antibody m4C9 (antibody, V domains shown, Murine monoclonal antibody from hybridoma after immunization of mice with Abeta(20-42) globulomer; also called mAb m4C9; mAb 4C9) VH: QVQLQQPGAELVKPGASVKLSCKAPGYTFTSYWMHWVKQRPGQGLEWIGRIDPKSGDTKYTEKFKSKATLTVDKPSSTAYMQLSSLTSEDSAVYYCTTMSKLSGTHAWFAYWGQGTLVTVSA VL: DIKMTQSPSSMYASLGERVTITCKASQDINSYLTWFQQKPGKSPKTLIYRANRLVDGVPSRFSGSGSGQDYSLTISSLEYEDMGIYYCLQYDEFPLTFGAGTKLELK | 1 |  | 60000 | no binding | no binding | no binding | no binding | no binding | no binding | no binding | no binding | 39500 | 36000 | 27300 | 110000 | 32600 | 30000
